Assay: yeast display, Sf9 membrane polyspecificity reagent, FACS + sequencing; frameworks hold sequencing errors
Outline: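 In a synthetic yeast display library (Saccharomyces cerevisiae BJ5465), nanobody expression was induced with galactose for 36–48 hours. FACS gates were set low and high (top ~1%) using anti-HA fluorescence for expression and streptavidin fluorescence for binding of the Sf9 membrane reagent. Each polyreactivity label is drawn from the gate of origin.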

Row | Sequence | polyreactivity (PSR sort gate)
1 | QVQLVESGGGLVQAGGSLRLSCAASRRTFKPYAMGWYRQAPGKERELVARISGSGGSTYYADSVKGRFTISRDNAKNTVYLQMNSLKPEDTAVYYCATTPYYWFDYWGQGTQVTVSS | low polyreactivity
2 | QVQLVESGGGLVQAGGSLRLSCAASRRTYWYNAMGWYRQSPGKERELVAAISRAGRTYYADSVKGRFTISRDNAKNTVYIQMNSLKPEDTAVYYCNVVLFGDSGNLQYYYWGQGTQVTVSS | high polyreactivity
3 | QVQLVESGGGLVQAGGSLRLSCAASRSIFSWYAMGWYRTAPGTERELVAAITWTGGSTYYADSVKGRFTISRDNAKNTVYLQMKSLKTEDTAVYYCAARRVVYRKYGDRGRWYNYWGQGTQVTVSS | high polyreactivity
4 | QVQLVESGGGLVQAGGSLRLSCAASRSIFSYNAMGWYRQAPGKGREFVAAITSSGTRKYYADSVQGRFTISRDNAMNTVYLQLNSLKPEDTAVYYCAADLRYDYWGQGTQVPVSS | high polyreactivity
5 | QVQLVESGGGLVQAGGSLRLSCAASRSIFYINAMGWYRQEPGKEMELVAAITSDGSTYYADSVKGRFTISRDNAKNTVYLQMNSLKPEDTAVYYCAADLTSDQYLYYWYWFYSWGQGTQVTVSS | low polyreactivity
6 | QVQLVESGGGLVQAGGSLRLSCAASRSNFQFYAMGWYRQAPGTERELVAVISTRGGSTYYADSVKGRFTISRDKAKNTVYLQMYSLKPEDTAVYYCAAKSVYRMGYWGQGTQVTVSS | high polyreactivity
7 | QVQLVESGGGLVQAGGSLRLSCAASRSTFPFYAMGWYRQAPGKERELVAAITSGGSTYADSVKGRFTISRDNAKNTVYLQMNSLKPEDTAVYYCAASWPRWWRFGYWGQGTQVTVSS | low polyreactivity
8 | QVQLVESGGGLVQAGGSLRLSCAASRSTFTGNAMGWYRQAPGNERELVASINGSSGSTYYADSVKGRFTISRDNAKNTVYLQMNSLKPEDTAVYYCAKDSFLHFPRVGWVGLEYWGQGTQVTVSS | low polyreactivity
9 | QVQLVESGGGLVQAGGSLRLSCAASVFIFDRYAMGWYRQAPGKERELVAAISSGGSTYYADSVKGRFTISRDNAKNTVYLQMNSLKPEDTAVYYCAAESWLNFIYEYDYWGQGTQVTVSS | low polyreactivity
10 | QVQLVESGGGLVQAGGSLRLSCAASVFTFQYYAMGWYRQAPGKERELVAAISRRGGRTDYADSVKGRFTISRDNAKNTVYLQMNSLKPEDTAVYYCARDPGAFEYWGQGTQVTLSS | high polyreactivity
11 | QVQLVESGGGLVQAGGSLRLSCAASVIIFNLYAMGWYRQAPGKERELVAAISWSGGSTYYADSVKGRFTISRDNAKNTVYLQMNSLKPEDPAVYYCATSFLYPYFDEDDYWGQGTQVTVSS | high polyreactivity
12 | QVQLVESGGGLVQAGGSLRLSCAASVITFWIYAMGWYRQAPGKERELVAAITGRGGSTYYADSVKGRFTISRDNAKNTVYLQLNSLKPEDTAFYYCAAESWYSTYDYWGQGTQVTVTS | high polyreactivity
13 | QVQLVESGGGLVQAGGSLRLSCAASVLIFDGYAMGWYRQAPGKEREFVADIDFGGGSTYYADSVKGRFTISRDNAKNTVYLQMNSLKPEDTAVYYCNAVWDDYGFYSPYVVVEYDYWGQGTQVTVSS | high polyreactivity
14 | QVQLVESGGGLVQAGGSLRLSCAASVLIFHTYGMGWYRQAPGKERELVADITDGGSTYYADSVKGRFTISRDNAKNTVYLQMNSLKPEDTAVYYCAADERGVFLTYWYFWYDYWGQGTQETVSS | low polyreactivity
15 | QVQLVESGGGLVQAGGSLRLSCAASVLIIWLYTMGWYRQAPGKERELVAAIDWSGGSTYYADSVKGRFTMSRDIAKNTVYLQMNRLKPEDTAVYYCAADPEPSYRFDYGGQGTQVTVSS | low polyreactivity
16 | QVQLVESGGGLVQAGGSLRLSCAASVRIFATNAMGWSRQAPGKERELVARISRRGGSTNYADSVKGRFTISRDNAKNTVYLQMNSLKPEDTAVYYCNVSFYWYRWYALLDYWGQVTQVTVSS | high polyreactivity
17 | QVQLVESGGGLVQAGGSLRLSCAASVRIFFRYAMGWYRQAPGKERELVAAIRKSGGSTYYADSVKGRFTISRDNAKNTVYFQMNSLKPEDTAVYYCAADVYYYYGRKYNYWGQGTQVTVSS | low polyreactivity
18 | QVQLVESGGGLVQAGGSLRLSCAASVRIFGSNVMGWYRQAPGKERELVASISSGGTTYYADSVKGLFTISRDNAKNTVYLQMNSLKPEDTAGYYCAKQWTRIYQYRWYPGTRTGYDYWGHGTQVTVSS | high polyreactivity
19 | QVQLVESGGGLVQAGGSLRLSCAASVRIFGSNVMGWYRQAPGKERELVASISSGGTTYYADSVKGRFTISRDNAKNTVYLHMNSLKPEDTAVYYCAKQWTRIYQYRWYPGTRTGYDYWGQGTQVTVSS | high polyreactivity
20 | QVQLVESGGGLVQAGGSLRLSCAASVRIFQRNVMGWYRQAPGKEWELVATINWSGASTYYADSVKGRFTISRDNAKNTVYLQMNSLTPEDTAVYYCAKDGHYPLVYLAFDYWGQGTQVTVSS | low polyreactivity
21 | QVQLVESGGGLVQAGGSLRLSCAASVRIFYGYTMGWYRQAPGKERELVASIDYSTGRTYYADSVKGRFTISRDNAKNTVYLLMNSLKPEDTAVYYCNADPNYSFLRYDYWGQGTQVTVSS | high polyreactivity
22 | QVQLVESGGGLVQAGGSLRLSCAASVRNYGINVMVWYRQAPGKERELVAAISYRTGSTYYADSVKGRFTISRDNAKNTVYLQMNSLKPEDTAVYYCDALRSIRTAWYDYWGQGTQVTVSS | high polyreactivity

Row | Sequence | polyreactivity (PSR sort gate)
23 | QVQLVESGGGLVQAGGSLRLSCAASVRTFSAYAMGCSRQAPGKERELVARITSVDSTNYSDSVNGRFTFSRDNAKNNVYLQMNSLKPEDTAVYSCNATFGYPFVDYDDYWGQGTQVTVSS | low polyreactivity
24 | QVQLVESGGGLVQAGGSLRLSCAASVRTYGFNTMGSYRQAPGKERELVAANTTSGGSTYYADSVKGRFTISRDNAKNTVYLQMNSLKPDDSAVYYCAKDYYSKHFPIYEYWGQGTQVTVSS | low polyreactivity
25 | QVQLVESGGGLVQAGGSLRLSCAASVSIFEWYAMGRYRQAHGKERELVAAINSGGSTYYADSVKGRFTISRDNAKNTVYLQMNSLKPEDTAVYYCAAGTQAHAYVVRPIEMDYWGQGTQVTVSS | low polyreactivity
26 | QVQLVESGGGLVQAGGSLRLSCAASVSIFVRNAMGWYRPAPGKERELGAADSVKGRFTISRDNAKNTVYLQMNSLKPEDTAVYYCAADEWIVHDGYYSSYYYWGQGTQVTVSS | low polyreactivity
27 | QVQLVESGGGLVQAGGSLRLSCAASVSIMARNAMVWYRQAPGKERELVAAISNSGSTNYADSVKGRFTISRDNAKNTVYLQMNSLKPEDTAVYYCAKDADHGWFEYDYWGQGTQVTVSS | low polyreactivity
28 | QVQLVESGGGLVQAGGSLRLSCAASVSNIKYNAMGWYRQAPGKERELVAAISSSGGTTYYADSVKGRFTISRDNAKNTVYLQMNSLKPEDTAVYYCNKYFRAGNGYGEEDYWGQGTQVTVSS | high polyreactivity
29 | QVQLVESGGGLVQAGGSLRLSCAASVSTFDDNAMGWYIQAPGKERELVASITYRGGSTYYADSVKGRFTISRDNAKNTVYLQMNSLKPEDTAVYYCNADYTGAEYDYWGQGTQVTVSS | low polyreactivity
30 | QVQLVESGGGLVQAGGSLRLSCAASVSTFKPYAMGWYRQAPGKERELVSAISGSGGSTYYADSVKGRFTISRDNAKNTVYLQMNSLKPEDTAVYYCAARFYVSYYYFGYEYWGQGTQVTVSS | high polyreactivity
31 | QVQLVESGGGLVQAGGSLRLSCAASVSTFPGYAMGWYRQAPGKERELVAAISTSGGRTYYADSVKGRFTISRDNAKNTVYLQMNSLKPEDTAVYYCAARDTRSPYSGTQVEYWGQGTQVTVSS | low polyreactivity
32 | QVQLVESGGGLVQAGGSLRLSCAASVSTFYSYVMGWSRQAPGKETELVAAITYSGGRTYYADSVKGRFTISRDNAKNTVYLQMNSLKPEDTAVYYCAKRVFNYQRYDYWGQGTQVTVSS | high polyreactivity
33 | QVQLVESGGGLVQAGGSLRLSCAASVYIFQSNVMGWYRQAPGKESELLAAITVSGGSTYYADSVKGRFTISRDNGKNTVYLQMKSLKPEDTAVYYCNKVGVKFRVDGWYDYWGQATQVTVSS | high polyreactivity
34 | QVQLVESGGGLVQAGGSLRLSCAATGFIFDSYAMGWYRQAPGKERELVAAISWSGGRTYYADSVKGRFTISRDNAKNTVYLQMNSLKPEDTAVYYCNVRTKLSTSYDYWGQGTQVTVSS | high polyreactivity
35 | QVQLVESGGGLVQAGGSLRLSCAATGFIFPINAMGWYRQAPGKERELVAAITGGGSTSYADSVKGRFTISRDNAKNTVYLQMNSLKPEDTAVYYCATDRLTYTKYGYWGQGTQVTVSS | low polyreactivity
36 | QVQLVESGGGLVQAGGSLRLSCAATGFIFSYYAMGWYRQAPGKERELVATITSGGSTYYADSVKGRFTISRDNAKNTVYLQMNSLKPEDTAVYYCNADWYWRVYWGQGTQVTVSS | high polyreactivity
37 | QVQLVESGGGLVQAGGSLRLSCAATGFIFYEYPMGWYRQAPGKERELVASINSDGRTDYADSVKGRFTISRDNAKNTVYLQMNSLKPEDTAVYYCAAALGYYGRHPYDYWGQGTQVTVSS | low polyreactivity
38 | QVQLVESGGGLVQAGGSLRLSCAATGFTFYTYAMGWYRQATGKETELVADISSGGSTNYADSVKGRFRISRDNAKNTVYLQMNSLIPEDTAVYYCSDDYYFLDWYDYWGQGTQVTVSS | low polyreactivity
39 | QVQLVESGGGLVQAGGSLRLSCAATGGTFNVYAMGWYRQAPGKESELVAAIRWSGGSTYYADSVKGRFTISRDNAKNTVYLQMNSLKPEDTAVYYCAARFYGRSQTYGSWGLGTQVTVSS | high polyreactivity
40 | QVQLVESGGGLVQAGGSLRLSCAATGGTFYVYAMGWYRQAPGKERELVARITWRGGRTYYADSVKGRFTISRDNAKNTVYLQMYSLKPEDTAVYYCNAEQYSQFDYWGQGTQVTVSS | high polyreactivity
41 | QVQLVESGGGLVQAGGSLRLSCAATGIIFDSYTMGWYRQAPGKERELVAAISVSGGSTYYADSVKVRFTISRDNAKNTVYLQMNSLKPEDTAVYYCAARGYAFNYMWPFNYWGQGTQVTVSS | low polyreactivity
42 | QVQLVESGGGLVQAGGSLRLSCAATGIIFKRYTMGWYRQAPGKERELVATINSGTRTYADSVKGRFTISRDNAKNTVYLQMNSLKPEDTAVYYCARRGYYYDYWGLGTQVTVSS | high polyreactivity
43 | QVQLVESGGGLVQAGGSLRLSCAATGITFEYNAMGWYRQAPGKERELVAAISLSSGSTYYADSVKGRFTISRDNAKNTVYLQMNSLKPEDTAVYYCNADTIIYEGGYWGQGTQVTVSS | low polyreactivity

— the nanobody polyreactivity screen of Harvey et al. (2022)
